Assay results: patent publication US20020019519

B1: His and myc epitope tagged human NAK amino acids 1-337 (from pcDNA3.1.NAK(1-337)-Hm, expressed in HEK293 cells) (protein)
chain: MASDSPARSLDEIDLSALRDPAGIFELVELVGNGTYGQVYKGRHVKTGQLAAIKVMDVTGDEEEEIKQEINMLKKYSHHRNIATYYGAFIKKNPPGMDDQLWLVMEFCGAGSVTDLIKNTKGNTLKEEWIAYICREILRGLSHLHQHKVIHRDIKGQNVLLTENAEVKLVDFGVSAQLDRTVGRRNTFIGTPYWMAPEVIACDENPDATYDFKSDLWSLGITAIEMAEGAPPLCDMHPMRALFLIPRNPAPRLKSKKWSKKFQSFIESCLVKNHSQRPATEQLMKHPFIRDQPNERQVRIQLKDHIDRTKKKRGEKDETEYEYSGSEEEEEENDSGE
B2: His and myc epitope tagged human NAK amino acids 1-529 (from pcDNA3.1.NAK(1-529)-Hm, expressed in HEK293 cells) (protein)
chain: MASDSPARSLDEIDLSALRDPAGIFELVELVGNGTYGQVYKGRHVKTGQLAAIKVMDVTGDEEEEIKQEINMLKKYSHHRNIATYYGAFIKKNPPGMDDQLWLVMEFCGAGSVTDLIKNTKGNTLKEEWIAYICREILRGLSHLHQHKVIHRDIKGQNVLLTENAEVKLVDFGVSAQLDRTVGRRNTFIGTPYWMAPEVIACDENPDATYDFKSDLWSLGITAIEMAEGAPPLCDMHPMRALFLIPRNPAPRLKSKKWSKKFQSFIESCLVKNHSQRPATEQLMKHPFIRDQPNERQVRIQLKDHIDRTKKKRGEKDETEYEYSGSEEEEEENDSGEPSSILNLPGESTLRRDFLRLQLANKERSEALRRQQLEQQQRENEEHKRQLLAERQKRIEEQKEQRRRLEEQQRREKELRKQQEREQRRHYEEQMRREEERRRAEHEQEYIRRQLEEEQRQLEILQQQLLHEQALLLEYKRKQLEEQRQAERLQRQLKQERDYLVSLQHQRQEQRPVEKKPLYHYKEGMSPSE
B3: recombinant full-length human NAK protein with hexa His and myc epitope tags (from pcDNA3.1.NAK-Hm, expressed in HEK293 cells) (protein)
chain: MASDSPARSLDEIDLSALRDPAGIFELVELVGNGTYGQVYKGRHVKTGQLAAIKVMDVTGDEEEEIKQEINMLKKYSHHRNIATYYGAFIKKNPPGMDDQLWLVMEFCGAGSVTDLIKNTKGNTLKEEWIAYICREILRGLSHLHQHKVIHRDIKGQNVLLTENAEVKLVDFGVSAQLDRTVGRRNTFIGTPYWMAPEVIACDENPDATYDFKSDLWSLGITAIEMAEGAPPLCDMHPMRALFLIPRNPAPRLKSKKWSKKFQSFIESCLVKNHSQRPATEQLMKHPFIRDQPNERQVRIQLKDHIDRTKKKRGEKDETEYEYSGSEEEEEENDSGEPSSILNLPGESTLRRDFLRLQLANKERSEALRRQQLEQQQRENEEHKRQLLAERQKRIEEQKEQRRRLEEQQRREKELRKQQEREQRRHYEEQMRREEERRRAEHEQEYIRRQLEEEQRQLEILQQQLLHEQALLLEYKRKQLEEQRQAERLQRQLKQERDYLVSLQHQRQEQRPVEKKPLYHYKEGMSPSEKPAWAKEVEERSRLNRQSSPAMPHKVANRISDPNLPPRSESFSISGVQPARTPPMLRPVDPQIPHLVAVKSQGPALTASQSVHEQPTKGLSGFQEALNVTSHRVEMPRQNSDPTSENPPLPTRIEKFDRSSWLRQEEDIPPKVPQRTTSISPALARKNSPGNGSALGPRLGSQPIRASNPDLRRTEPILESPLQRTSSGSSSSSSTPSSQPSSQGGSQPGSQAGSSERTRVRANSKSEGSPVLPHEPAKVKPEESRDITRPSRPASYKKAIDEDLTALAKELRELRIEETNRPMKKVTDYSSSSEESESSEEEEEDGESETHDGTVAVSDIPRLIPTGAPGSNEQYNVGMVGTHGLETSHADSFSGSISREGTLMIRETSGEKKRSGHSDSNGFAGHINLPDLVQQSHSPAGTPTEGLGRVSTHSQEMDSGTEYGMGSSTKASFTPFVDPRVYQTSPTDEDEEDEESSAAALFTSELLRQEQAKLNEARKISVVNVNPTNIRPHSDTPEIRKYKKRFNSEILCAALWGVNLLVGTENGLMLLDRSGQGKVYNLINRRRFQQMDVLEGLNVLVTISGKKNKLRVYYLSWLRNRILHNDPEVEKKQGWITVGDLEGCIHYKVVKYERIKFLVIALKNAVEIYAWAPKPYHKFMAFKSFADLQHKPLLVDLTVEEGQRLKVIFGSHTGFHVIDVDSGNSYDIYIPSHIQGNITPHAIVILPKTDGMEMLVCYEDEGVYVNTYGRITKDVVLQWGEMPTSVAYIHSNQIMGWGEKAIEIRSVETGHLDGVFMHKRAQRLKFLCERNDKVFFASVRSGGSSQVFFMTLNRNSMMNW

Target: myelin basic protein (MBP) (Sigma)
Sequence (P02687 whole entry): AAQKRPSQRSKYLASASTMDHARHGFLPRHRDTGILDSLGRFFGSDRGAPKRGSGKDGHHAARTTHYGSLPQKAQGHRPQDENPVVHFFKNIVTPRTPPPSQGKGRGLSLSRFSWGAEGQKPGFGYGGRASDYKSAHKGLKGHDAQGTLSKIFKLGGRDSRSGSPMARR

Question: Which “kinase activity (incorporation of phosphate in MBP, 32P, P81 paper, scintillation counting)” value (“kinase activity” for short) does the source give for B1 here?
Answer: display increased kinase activity (FIG. 4b)

Question: B2 was tested. Which “kinase activity” value did it give?
Answer: display increased kinase activity (FIG. 4b)

Question: For B3, which “kinase activity” value is on record?
Answer: Recombinant NAK protein displays enzymatic (kinase) activity
